# Data published in patent US20050064507.
# Assays:
# [1] = test system: T1, MCM2 peptide VQRHRSMRKTFARYLSFRRD (SEQ ID NO:129)
# T1 sequence: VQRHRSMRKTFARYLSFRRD
# [2] = test system: T2, PARIS1 peptide EYLERRASRRRAV (SEQ ID NO:130)
# T2 sequence: EYLERRASRRRAV
# [3] = test system: T3, plectin peptide PLKEKKRERKTSSKSSVRKR (SEQ ID NO:125)
# T3 sequence: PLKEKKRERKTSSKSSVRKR
# [4] = test system: T4, peptide KNVVKLLSSRRTQDR (SEQ ID NO:57)
# T4 sequence: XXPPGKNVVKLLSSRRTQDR
# [5] = test system: T5, NIK peptide WKGKRRSKARKKRK (SEQ ID NO:131)
# T5 sequence: WKGKRRSKARKKRK
# [6] = test system: T6, peptide VLAKKGTSKTPVPE (SEQ ID NO:44)
# T6 sequence: XXPPGVLAKKGTSKTPVPE
# [7] = test system: T7, peptide PRLIRRGSKKRPAR (SEQ ID NO:6)
# T7 sequence: XXPPGPRLIRRGSKKRPAR
# [8] = test system: T8, ANK1 peptide AQIVKRASLKRGKQ (SEQ ID NO:90)
# T8 sequence: AQIVKRASLKRGKQ
# [9] = test system: T9, peptide HVRRRRGTFKRSKLRARD (SEQ ID NO:1)
# T9 sequence: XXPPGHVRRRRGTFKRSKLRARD
# [10] = test system: T10, Urotensin-2 receptor peptide LYARLARAYRRSQRASFKRA (SEQ ID NO:159)
# T10 sequence: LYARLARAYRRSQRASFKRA
# [11] = test system: T11, HERG peptide TELEGGFSRQRKRKLSFRRR (SEQ ID NO:140)
# T11 sequence: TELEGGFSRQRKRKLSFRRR
# [12] = test system: T12, peptide LRRKHLGTLNFGGIR (SEQ ID NO:60)
# T12 sequence: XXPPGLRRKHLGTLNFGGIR
# [13] = test system: T13, peptide GENVLKKSMKSRVKG (SEQ ID NO:36)
# T13 sequence: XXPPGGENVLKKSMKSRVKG
# [14] = test system: T14, peptide QRQERIFSKRRGQDF (SEQ ID NO:63)
# T14 sequence: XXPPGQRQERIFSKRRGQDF
# [15] = test system: T15, peptide AQIVKRASLKRGKQ (SEQ ID NO:10)
# T15 sequence: XXPPGAQIVKRASLKRGKQ
# [16] = test system: T16, peptide RVKLGTLRRPEGP (SEQ ID NO:58)
# T16 sequence: XXPPGRVKLGTLRRPEGP
# [17] = test system: T17, peptide LLKKRDSFRTPRDSKLE (SEQ ID NO:22)
# T17 sequence: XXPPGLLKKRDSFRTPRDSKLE
# [18] = test system: T18, dag kinase iota peptide PQNSLKASNRKKKRTSFKRK (SEQ ID NO:151)
# T18 sequence: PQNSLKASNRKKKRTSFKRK
# [19] = test system: T19, gravin peptide KKFFTQGWAGWRKKTSFRKP (SEQ ID NO:154)
# T19 sequence: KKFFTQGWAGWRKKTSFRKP
# [20] = test system: T20, peptide AVNSRRRAGQKKK (SEQ ID NO:48)
# T20 sequence: XXPPGAVNSRRRAGQKKK
# [21] = test system: T21, pkc-zeta peptide GLPAPGEDKSIYRRGSRRWR (SEQ ID NO:167)
# T21 sequence: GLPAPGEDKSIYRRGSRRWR
# [22] = test system: T22, peptide HERKGSDKRGDNQ (SEQ ID NO:70)
# T22 sequence: XXPPGHERKGSDKRGDNQ
# [23] = test system: T23, peptide DLLGKKVSTKTLSEDD (SEQ ID NO:51)
# T23 sequence: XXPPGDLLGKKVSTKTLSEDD
# [24] = test system: T24, peptide EARLGAASLKFGARD (SEQ ID NO:56)
# T24 sequence: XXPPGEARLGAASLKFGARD
# [25] = test system: T25, peptide AGWRKKTSFRKPKED (SEQ ID NO:17)
# T25 sequence: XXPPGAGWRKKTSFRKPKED
# [26] = test system: T26, PPP1R14A peptide QKRHARVTVKYDRRE (SEQ ID NO:107)
# T26 sequence: QKRHARVTVKYDRRE
# [27] = test system: T27, peptide ENLRKVTTDKKSLAY (SEQ ID NO:54)
# T27 sequence: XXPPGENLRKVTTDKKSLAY
# [28] = test system: T28, peptide AKNLKTLQKRDSFIG (SEQ ID NO:53)
# T28 sequence: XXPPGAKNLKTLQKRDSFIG
# [29] = test system: T29, peptide NMEAKKLSKDRMKKY (SEQ ID NO:40)
# T29 sequence: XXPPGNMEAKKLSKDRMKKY
# [30] = test system: T30, dag kinase zeta peptide KKKKRASFKRKSSKKG (SEQ ID NO:114)
# T30 sequence: KKKKRASFKRKSSKKG
# [31] = test system: T31, peptide IDYYKKTSNGRLPVK (SEQ ID NO:74)
# T31 sequence: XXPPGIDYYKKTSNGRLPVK
# [32] = test system: T32, MYBPC3 peptide LLKKRDSFRTPRDSKLE (SEQ ID NO:103)
# T32 sequence: LLKKRDSFRTPRDSKLE
# [33] = test system: T33, peptide GQAWGRQSPRRLED (SEQ ID NO:46)
# T33 sequence: XXPPGGQAWGRQSPRRLED
# [34] = test system: T34, peptide VFREHQRSGSYHVRE (SEQ ID NO:45)
# T34 sequence: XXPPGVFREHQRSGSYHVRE
# [35] = test system: T35, LIMK-2 peptide LRRRSLRRSNSISKSPGP (SEQ ID NO:121)
# T35 sequence: LRRRSLRRSNSISKSPGP
# [36] = test system: T36, NIK peptide TEGKMARVAWKGKRRSKARK (SEQ ID NO:164)
# T36 sequence: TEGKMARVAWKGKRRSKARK
# [37] = test system: T37, peptide EEAEHKATKARLADK (SEQ ID NO:75)
# T37 sequence: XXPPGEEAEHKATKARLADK
# [38] = test system: T38, kinesin 3C peptide LEKRGMLGKRPRRKSSRRKK (SEQ ID NO:133)
# T38 sequence: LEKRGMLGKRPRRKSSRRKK
# [39] = test system: T39, peptide QKRHARVTVKYDRRE (SEQ ID NO:23)
# T39 sequence: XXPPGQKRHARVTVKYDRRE
# [40] = test system: T40, peptide GAPPRRSSIRNAH (SEQ ID NO:20)
# T40 sequence: XXPPGGAPPRRSSIRNAH
# [41] = test system: T41, PARIS1 peptide EYLERRASRRRAV (SEQ ID NO:138)
# T41 sequence: EYLERRASRRRAV
substance,measurement,setting,value
PKC-delta,"in vitro phosphorylation, 1 uM peptide (% of best substrate)",[1],32
same,"in vitro phosphorylation, 10 uM peptide (% of best substrate)",[1],14
same,"in vitro phosphorylation, 1 uM peptide (% of best substrate)",[2],46
same,"in vitro phosphorylation, 10 uM peptide (% of best substrate)",[2],20
same,"in vitro phosphorylation, 1 uM peptide (% of best substrate)",[3],46
same,"in vitro phosphorylation, 10 uM peptide (% of best substrate)",[3],36
same,in vitro phosphorylation (% of best substrate),[4],2
same,"in vitro phosphorylation, 1 uM peptide (% of best substrate)",[5],38
same,"in vitro phosphorylation, 10 uM peptide (% of best substrate)",[5],29
same,in vitro phosphorylation (% of best substrate),[6],2
same,in vitro phosphorylation (% of best substrate),[7],40
same,in vitro phosphorylation (% of best substrate),[8],32
same,in vitro phosphorylation (% of best substrate),[9],100
same,"in vitro phosphorylation, 1 uM peptide (% of best substrate)",[10],15
same,"in vitro phosphorylation, 10 uM peptide (% of best substrate)",[10],12
same,"in vitro phosphorylation, 1 uM peptide (% of best substrate)",[11],44
same,"in vitro phosphorylation, 10 uM peptide (% of best substrate)",[11],49
same,in vitro phosphorylation (% of best substrate),[12],1
same,in vitro phosphorylation (% of best substrate),[13],4
same,in vitro phosphorylation (% of best substrate),[14],1
same,in vitro phosphorylation (% of best substrate),[15],32
same,in vitro phosphorylation (% of best substrate),[16],1
same,in vitro phosphorylation (% of best substrate),[17],12
same,"in vitro phosphorylation, 1 uM peptide (% of best substrate)",[18],27
same,"in vitro phosphorylation, 10 uM peptide (% of best substrate)",[18],37
same,"in vitro phosphorylation, 1 uM peptide (% of best substrate)",[19],26
same,"in vitro phosphorylation, 10 uM peptide (% of best substrate)",[19],14
same,in vitro phosphorylation (% of best substrate),[20],2
same,"in vitro phosphorylation, 1 uM peptide (% of best substrate)",[21],13
same,"in vitro phosphorylation, 10 uM peptide (% of best substrate)",[21],24
same,in vitro phosphorylation (% of best substrate),[22],1
same,in vitro phosphorylation (% of best substrate),[23],2
same,in vitro phosphorylation (% of best substrate),[24],2
same,in vitro phosphorylation (% of best substrate),[25],17
same,in vitro phosphorylation (% of best substrate),[26],10
same,in vitro phosphorylation (% of best substrate),[27],2
same,in vitro phosphorylation (% of best substrate),[28],2
same,in vitro phosphorylation (% of best substrate),[29],3
same,"in vitro phosphorylation, 1 uM peptide (% of best substrate)",[30],80
same,"in vitro phosphorylation, 10 uM peptide (% of best substrate)",[30],100
same,in vitro phosphorylation (% of best substrate),[31],0
same,in vitro phosphorylation (% of best substrate),[32],12
same,in vitro phosphorylation (% of best substrate),[33],2
same,in vitro phosphorylation (% of best substrate),[34],2
same,"in vitro phosphorylation, 1 uM peptide (% of best substrate)",[35],80
same,"in vitro phosphorylation, 10 uM peptide (% of best substrate)",[35],53
same,"in vitro phosphorylation, 1 uM peptide (% of best substrate)",[36],18
same,"in vitro phosphorylation, 10 uM peptide (% of best substrate)",[36],26
same,in vitro phosphorylation (% of best substrate),[37],0
same,"in vitro phosphorylation, 1 uM peptide (% of best substrate)",[38],46
same,"in vitro phosphorylation, 10 uM peptide (% of best substrate)",[38],52
same,in vitro phosphorylation (% of best substrate),[39],10
same,in vitro phosphorylation (% of best substrate),[40],13
same,"in vitro phosphorylation, 1 uM peptide (% of best substrate)",[41],49
same,"in vitro phosphorylation, 10 uM peptide (% of best substrate)",[41],28
